According to patent US8017326B2, “Methods of modulating cell death based on the Bit-1/AES regulatory pathway” (Sanford-Burnham Medical Research Institute, priority 2002, dated 2011):
Entries after “also recorded” stand apart in the source; their conditions may differ.

Assays:
[1] = test system: Heat Shock 70 kD protein 1A; assay: Northern blot of ecdysone-induced Bit1 or AES cell lines; assay type: cell-based, human; settings: ecdysone-inducible ECR-293 cell line expressing Bit1 or AES
Description: (§1) To determine whether the Bit1/AES pathway can regulate the transcription of genes other than Bcl-2, two stable cell lines were established expressing either-Bit1 or AES under control of an ecdysone-inducible promoter. To detect genes regulated by Bit1 or AES, probes were prepared from the ecdysone-induced cell lines and used to screen microarrays representing 19,000 human cDNAs. […] Down-regulation of HSP-70 and thymosin 4 in cells induced to express Bit1 or AES was confirmed by Northern blot analysis (see FIG. 7).
(§2) Northern blot analysis was performed as follows. Total RNA (10 μg) was electrophoresed on a 1% agarose-formaldehyde gel and transferred to nitrocellulose filters. The filters were hybridized using the same RNA probes as in the microarray experiments in Rapid-hyb buffer and washed according to the manufacturer's instructions (Amersham-Pharmacia).

[2] = test system: Thymosin β-4; assay: as above; assay type: cell-based, human; settings: ecdysone-inducible ECR-293 cell line expressing Bit1 or AES
Description: as §1, §2

[3] = test system: 19,000 human cDNAs; assay: cDNA microarray analysis of ecdysone-induced Bit1 or AES cell lines; assay type: cell-based
Description: as §1
cDNA microarray analysis was performed as follows. Total RNA was purified 48 hours after treatment with 10 μM ponasterone A (Invitrogen; San Diego, Calif.) from the ecdysone inducible cell line ECR-293-Bit1 or ECR-293-AES according to the manufacturer's instructions (Qiagen; Valencia, Calif.). cDNA probes were generated and hybridized with a microarray containing 19,000 human cDNAs from Microarray Centre at University Health Network, Ontario Cancer institute. cDNAs were labeled with fluorescent dyes (Cy3 or Cy5) using reverse transcription. Arrays were processed and hybridized essentially as described in Iyer et al., Science 283:83-87 (1999). After hybridization, arrays were scanned to measure fluorescence using a ScanArray 4000 scanner (Perkin Elmer; Meriden, Conn.). Raw data files generated by scanner software were imported into ImaGene and Gene Spring for analysis. Experiments were performed in duplicate using color reversals.

B1: Bit1: human Bit1 polypeptide of 179 residues (SEQ ID NO:2), pro-apoptotic, expressed in cells by transfection (protein, listed as Homo sapiens)
chain: MPSKSLVMEYLAHPSTLGLAVGVACGMCLGWSLRVCFGMLPKSKTSKTHTDTESEASILGDSGEYKMILVVRNDLKMGKGKVAAQCSHAAVSAYKQIQRRNPEMLKQWEYCGQPKVVVKAPDEETLIALLAHAKMLGLTVSLIQDAGRTQIAPGSQTVLGIGPGPADLIDKVTGHLKLY
Northern result, suppression of Heat Shock 70 kD protein 1A [1]: 3 fold | Northern result, suppression of Thymosin β-4 [2]: 5 fold | Bcl-2 expression ([3]; Bit1 and AES stable cell lines): not measurably altered | Microarray result: gene induced ([3]; at least a two-fold induction, value is the gene): Atrophin-1 interacting protein 1; also recorded: Mannosyl (β-1,4)-glycoprotein; also recorded: insulin-like growth factor-binding; also recorded: Tissue factor pathway inhibitor 2 | Microarray result: gene suppressed ([3]; at least a two-fold suppression, value is the gene): Heat Shock 70 kD protein 1A; also recorded: Thymosin β-4; also recorded: Actin-binding LIM protein; also recorded: sialytransferase
